Laboratory results from patent publication US20030148484A1 (published 2003).

Biological target: T1, Streptavidin (streptavidin column) (UniProt P22629 37-163, limits assumed)
T1 construct: Immobilised on column matrix
Test: affinity column (streptavidin column without kappa)

T1 sequence (P22629 37-163 limits assumed): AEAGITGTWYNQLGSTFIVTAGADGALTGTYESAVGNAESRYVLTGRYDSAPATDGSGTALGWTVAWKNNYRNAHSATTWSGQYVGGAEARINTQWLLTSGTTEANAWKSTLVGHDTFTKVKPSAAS

B1: LHL (growth factor comprising H flanked by two L molecules) (designed binder)
chain: MKKTAIAIAVALAGFATVAQAAPKDNTEEVTIKANLIFANGSTQTAEFKGTFEKATSEAYAYADTLKKDNGEYTVDVADKGYTLNIKFAGKEATNRNTDGSTDYGILQINSRWGGLTLKEEVTIKANLIFANGSTQTAEFKGTFEKATSEAYAYADTLKKDNGEYTVDVADKGYTLNIKFAG
notes: also called LIIL [sic]
B1: no binding.
